B1: gGT30: glycosyltransferase protein with 451 amino acids, SEQ ID NO.: 6 (protein)
chain: MATQKCFRVLVFPWLAHGHISPFLELARKLIEKGNFFIYFCSTPINLISIKKKLSGDDHQNYTKSIQLVEHNLPTLPQLPPHYHTTDGLPPNLNPTLRKAFEMSKLSFPNTLNTLKPDLLICDDLFQWPEIVASSHGVPVVRFQTCSVTAASFLAHIFTNPDVTYPFPAIYLHEYETDQIRRCVDAVFESGREESRNLLVVNTSKAIEEKYFYYYSLLRGNTKIMPVGPLIQQAPNGDEDMKVIEWLDKKDPCSTVFVSFGSEYFMQKEEVEEMAHGLELSNVNFIWVFRAPVGAEKVKLPLGFVERVGGRGIVMEGWAPQARILGHSSIGGFVSHCGWNSVLETINFGVPIIGMPMKFEQPMNARLLSELGVCVEIVGDETRRFGREEVGNVIREVVGGKIGDDLRRKVKELGAKIKEKQEEEMDDVLDELVQICNKKKRTVVHHHHHH
modifications: Panax ginseng; gGT30
B2: gGT13: glycosyltransferase protein with 476 amino acids, SEQ ID NO.: 4 (protein)
chain: MGAELILIPSPGVGHLVSTVEIAKLLISRDERLSITVLVMKFSHDTGVTAYTRSLQKDAPNRIVFVDLPQNESLISSPKSFFTSFIESQTSPVRDSVRQIVSRSDSNKLAGFVIDMFCTPMIDVANEFGVPTYVFFTSGAAFLGLQFYHLSLSDEHNQDLTEYKDTDVELSIPSFINPVPAKVLPSVILNKEGSTMLQSISRRFKEAKAILVNTFAELEPHAIKALGDNCKIPPIYPVGPIINLKNKEGTTQNHSSEDGIISWLDNQPPSSVVFLCFGSFGSFDEGQVREIANGLEQSGQRFLWSLRRRPEKMELPKDYENPEEVLPEGFIERTSGMGKVIGWAPQTAILSHPAVGGFVSHCGWNSTLESIWCGVPMATWPIYAEQQINAFELVKELGMAVEIKMDYREDYIFAPENNLVVTADQIEKGMRCLMMDGESEMRKKVEEMKEKSRMAMVKGGSSYISLGHFIEDVMRN
modifications: Panax ginseng; gGT13

How the values were obtained:
prostate cancer cells = settings: cited from earlier work
osteoclasts = settings: cited from earlier work
lung cancer cells 3LL = lung cancer cells 3LL (mice); cited from earlier work
[1] = test system: Morris liver cancer cells; settings: Morris liver cancer cells (rats); cited from earlier work
B-16 melanoma cells = B-16 melanoma cells (mice); cited from earlier work
HeLa cells = HeLa cells (human); cited from earlier work
[2] = Glycosyltransfering reaction with crude enzyme, substrate PPD; format: biochemical; settings: cell lysate of recombinant yeasts, method of Example 4
[3] = Glycosyltransfering reaction with crude enzyme, substrate PPT; format: biochemical; settings: cell lysate of recombinant yeasts, method of Example 4
[4] = Glycosyltransfering reaction with crude enzyme, substrate Rh2; format: biochemical; settings: cell lysate of recombinant yeasts, method of Example 4
Method: (§1) The lysate supernatant of the recombinant yeasts expressing the empty vector was used as control.
(§2) The reaction was conducted under 35° C. for 12 hrs, then stopped by adding 100 μL of butanol. The product were extracted, dried in vacuum, and dissolved in methanol.
(§3) The reaction products were first detected by thin layer chromatography (TLC). […]
(§4) The lysate supernatant of the recombinant yeast expressing empty vectors was used as control. The reaction was conducted under 35° C. for 12 hrs, and then stopped by adding 100 μL of butanol. The product were extracted, dried in vacuum, and dissolved in methanol.
(§5) The glycosyltransfering reactions of ginsenosides Rh2 and F2 were catalyzed by using the lysate supernatant of the recombinant yeasts expressing 3GT1, 3GT2, 3GT3 and 3GT4 as crude enzymes. The 100 μL reaction system is shown as Table 3. The reaction was conducted under 35° C. for 12 hrs, and then stopped by adding 100 μL of butanol. The product were extracted, dried in vacuum, and dissolved in methanol.

[5] = Glycosyltransfering reaction with crude enzyme, substrate Rg3; format: biochemical; settings: cell lysate of recombinant yeasts, method of Example 4
Method: as §1, §2, §3

[6] = Glycosyltransfering reaction with crude enzyme, substrate CK; format: biochemical; settings: cell lysate of recombinant yeasts, method of Example 4
Method: (§6) According to the method as in Example 4, the cell lysate of recombinant yeasts expressing gGT13 and gGT30 were used to catalyze PPD and PPT.
as §5, with “ginsenosides” for “ginsenosides Rh2”, “ginsengenins” for “F2”, “lysis” for “lysate”, “enzymes. The lysis supernatant of recombinant E. coli expressing empty vectors was used as control.” for “enzymes.”, “hrs,” for “hrs, and”

[7] = Glycosyltransfering reaction with crude enzyme, substrate F2; format: biochemical; settings: cell lysate of recombinant yeasts, method of Example 4
Method: as §6, §4, §5

[8] = Glycosyltransfering reaction with crude enzyme, substrate F1; format: biochemical; settings: cell lysate of recombinant yeasts, method of Example 4
Method: as §6
as §4, with “lysis” for “lysate”, “of” for “of the”, “E. coli” for “yeast”, “control. The 100 μL reaction system is shown as Table 3.” for “control.”, “hrs,” for “hrs, and”

[9] = Glycosyltransfering reaction with crude enzyme, substrate Rh1; format: biochemical; settings: cell lysate of recombinant yeasts, method of Example 4
Method: as §1, §2, §3

[10] = Glycosyltransfering reaction with crude enzyme, substrate Rg1; format: biochemical; settings: cell lysate of recombinant yeasts, method of Example 4

Molecule	inhibition of prostate cancer cells (prostate cancer cells)	cytotoxicity to osteoclasts (osteoclasts)	inhibition of the generation of osteoclasts (osteoclasts)	inhibition of proliferation (lung cancer cells 3LL)	inhibition of proliferation [1]	inhibition of proliferation (B-16 melanoma cells)	inhibition of proliferation (HeLa cells)	conversion of PPD [2]	conversion of PPT [3]	conversion of Rh2 [4]	conversion of Rg3 [5]	conversion of CK [6]	conversion of F2 [7]	conversion of F1 [8]	conversion of Rh1 [9]	conversion of Rg1 [10]
CC(C)=CCC[C@](C)(O)[C@H]1CC[C@]2(C)[C@@H]1[C@H](O)C[C@@H]1[C@@]3(C)CC[C@H](O[C@@H]4O[C@H](CO)[C@@H](O)[C@H](O)[C@H]4O)C(C)(C)[C@@H]3CC[C@]12C [ginsenoside Rh2, 3-O-β-(D-glucopyranosyl)-20(S)-protopanaxadiol]	significantly inhibit	strong cytotoxicity	poorly inhibits	can inhibit the proliferation	can inhibit the proliferation	can inhibit the proliferation	can inhibit the proliferation	–	–	–	–	–	–	–	–	–
B1	–	–	–	–	–	–	–	neither converted	neither converted	neither converted	neither converted	neither converted	neither converted	neither converted	neither converted	neither converted
B2	–	–	–	–	–	–	–	neither converted	neither converted	neither converted	neither converted	neither converted	neither converted	neither converted	neither converted	neither converted
